US9580512

Target: CD55 (UniProt P08174)
Assay: cell-based or functional assay

Sequence of UniProt P08174 (P08174 35-353 limits assumed): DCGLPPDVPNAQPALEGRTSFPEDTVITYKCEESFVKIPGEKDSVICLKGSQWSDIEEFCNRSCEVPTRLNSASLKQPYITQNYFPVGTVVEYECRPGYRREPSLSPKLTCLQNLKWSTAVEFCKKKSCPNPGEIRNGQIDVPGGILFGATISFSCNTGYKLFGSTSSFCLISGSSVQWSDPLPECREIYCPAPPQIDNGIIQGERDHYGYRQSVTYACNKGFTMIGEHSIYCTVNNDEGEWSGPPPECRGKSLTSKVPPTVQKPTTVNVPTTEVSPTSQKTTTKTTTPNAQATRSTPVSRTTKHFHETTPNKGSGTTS

monoclonal antibody 791T/36
C3b deposition on 791T cells, mean linear fluorescence (MLF): 520 MLF | increase in C3b deposition: 250%

BRIC 216 (antibody)
C3b deposition on 791T cells, mean linear fluorescence (MLF): 350 MLF

BRIC 220 (antibody)
C3b deposition on 791T cells, mean linear fluorescence (MLF): 200 MLF
